Data taken from US20040254354A1 (INHIBITEX, published 2004).

B2: biotinylated recombinant region A from ClfA (other)
chain: SENSVTQSDSASNESKSNDSSSVSAAPKTDDTNVSDTKTSSNTNNGETSVAQNPAQQETTQSSSTNATTEETPVTGEATTTTTNQANTPATTQSSNTNAEELVNQTSNETTFNDTNTVSSVNSPQNSTNAENVSTTQDTSTEATPSNNESAPQSTDASNKDVVNQAVNTSAPRMRAFSLAAVAADAPAAGTDITNQLTNVTVGIDSGTTVYPHQAGYVKLNYGFSVPNSAVKGDTFKITVPKELNLNGVTSTAKVPPIMAGDQVLANGVIDSDGNVIYTFTDYVNTKDDVKATLTMPAYIDPENVKKTGNVTLATGIGSTTANKTVLVDYEKYGKFYNLSIKGTIDQIDKTNNTYRQTIYVNPSGDNVIAPVLTGNLKPNTDSNALIDQQNTSIKVYKVDNAADLSESYFVNPENFEDVTNSVNITFPNPNQYKVEFNTPDDQITTPYIVVVNGHIDPNSKGDLALRSTLYGYNSNIIWRSMSWDNEVAFNNGSGSGDGIDKPVVPEQPDEPGEIEPIPE
modifications: biotinylated (sites not given)
notes: domain: region A; also called ClfA region A; biotinylated ClfA

What was measured:
human fibrinogen (human) = human fibrinogen (human) (UniProt P02671); experiment: cell-based or functional assay
[1] = molecular target: B2; experiment: Western affinity blot of human fibrinogen (FIG. 22)
human fibrinogen = molecular target: T1, human fibrinogen (human, UniProt P02671 20-629; P02675 31-491; P02679 27-437); experiment: direct ELISA, biotinylated region A on fibrinogen-coated plates
T1 construct: Bought (Chromogenix for ELISA and blots; Calbiochem, plasminogen free, for clumping assays); The plate adherence paragraphs say only 'fibrinogen'; also called solid phase fibrinogen; immobilized fibrinogen
T1 sequence 1: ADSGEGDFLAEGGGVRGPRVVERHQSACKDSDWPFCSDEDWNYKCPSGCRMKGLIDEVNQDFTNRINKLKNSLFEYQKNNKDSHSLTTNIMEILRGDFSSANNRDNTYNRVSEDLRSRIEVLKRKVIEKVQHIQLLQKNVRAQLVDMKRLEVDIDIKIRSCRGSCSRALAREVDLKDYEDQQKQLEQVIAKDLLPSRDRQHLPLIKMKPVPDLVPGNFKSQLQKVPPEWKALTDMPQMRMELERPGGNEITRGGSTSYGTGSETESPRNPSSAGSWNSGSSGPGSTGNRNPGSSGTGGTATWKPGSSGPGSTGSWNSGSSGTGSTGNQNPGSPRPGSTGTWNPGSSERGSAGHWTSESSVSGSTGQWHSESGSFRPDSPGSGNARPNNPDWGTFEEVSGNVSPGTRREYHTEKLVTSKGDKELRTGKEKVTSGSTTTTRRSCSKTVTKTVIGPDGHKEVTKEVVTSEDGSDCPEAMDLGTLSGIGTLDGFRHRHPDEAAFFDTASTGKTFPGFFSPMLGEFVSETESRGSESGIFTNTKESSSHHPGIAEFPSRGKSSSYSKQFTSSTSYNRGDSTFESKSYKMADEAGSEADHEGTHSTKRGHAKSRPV
T1 sequence 2: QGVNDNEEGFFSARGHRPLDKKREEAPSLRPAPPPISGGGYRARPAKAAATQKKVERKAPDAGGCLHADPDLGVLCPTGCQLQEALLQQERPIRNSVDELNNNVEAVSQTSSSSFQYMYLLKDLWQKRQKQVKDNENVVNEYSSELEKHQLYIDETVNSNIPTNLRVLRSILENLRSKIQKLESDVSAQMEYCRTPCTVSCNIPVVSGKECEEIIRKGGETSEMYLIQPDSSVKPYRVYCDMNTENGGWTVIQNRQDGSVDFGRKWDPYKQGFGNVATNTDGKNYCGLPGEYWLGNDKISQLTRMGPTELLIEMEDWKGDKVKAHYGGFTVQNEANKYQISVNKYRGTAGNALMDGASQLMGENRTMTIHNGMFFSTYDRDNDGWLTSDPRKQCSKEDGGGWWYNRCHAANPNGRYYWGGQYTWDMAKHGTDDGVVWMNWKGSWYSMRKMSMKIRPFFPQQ
T1 sequence 3: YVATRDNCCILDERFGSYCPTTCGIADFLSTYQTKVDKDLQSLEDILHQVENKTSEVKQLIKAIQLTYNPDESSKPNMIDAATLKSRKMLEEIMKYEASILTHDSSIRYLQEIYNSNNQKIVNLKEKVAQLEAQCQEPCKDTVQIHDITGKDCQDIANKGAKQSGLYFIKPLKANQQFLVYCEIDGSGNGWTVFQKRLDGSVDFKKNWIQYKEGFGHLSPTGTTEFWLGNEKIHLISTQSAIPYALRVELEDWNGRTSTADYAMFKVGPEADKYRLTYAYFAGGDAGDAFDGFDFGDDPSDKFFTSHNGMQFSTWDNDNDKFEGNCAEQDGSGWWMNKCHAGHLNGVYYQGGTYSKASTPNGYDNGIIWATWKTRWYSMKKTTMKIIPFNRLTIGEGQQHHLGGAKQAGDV

bovine serum albumin = molecular target: T2, bovine serum albumin (bovine, UniProt P02769 25-607); experiment: direct ELISA, biotinylated region A on BSA-coated plates
T2 construct: also called BSA
T2 sequence (P02769 25-607 limits assumed): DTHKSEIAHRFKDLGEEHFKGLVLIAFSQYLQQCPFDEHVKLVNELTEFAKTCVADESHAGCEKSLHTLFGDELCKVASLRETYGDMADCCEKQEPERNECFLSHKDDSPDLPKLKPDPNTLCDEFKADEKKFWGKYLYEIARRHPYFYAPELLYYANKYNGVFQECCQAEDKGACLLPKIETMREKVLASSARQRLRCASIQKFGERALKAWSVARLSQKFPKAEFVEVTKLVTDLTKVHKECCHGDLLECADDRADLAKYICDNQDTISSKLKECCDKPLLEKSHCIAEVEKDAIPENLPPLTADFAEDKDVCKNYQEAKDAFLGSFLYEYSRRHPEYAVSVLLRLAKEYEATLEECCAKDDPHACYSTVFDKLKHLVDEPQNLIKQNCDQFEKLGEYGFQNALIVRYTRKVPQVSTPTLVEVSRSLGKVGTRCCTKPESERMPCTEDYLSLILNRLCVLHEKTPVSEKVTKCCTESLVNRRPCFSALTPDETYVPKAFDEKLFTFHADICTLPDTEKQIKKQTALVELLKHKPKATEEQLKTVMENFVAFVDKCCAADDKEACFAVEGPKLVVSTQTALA

“ClfA (native, on S. aureus Newman cells) (from UniProt Q53653 40-899)” showed a Clumping titer, µg/ml fibrinogen; clfB mutant, exponential phase (µg/ml fibrinogen) (human fibrinogen (human)) of 1.95, a Clumping titer, µg/ml fibrinogen; clfB mutant, stationary phase (µg/ml fibrinogen) (human fibrinogen (human)) of 0.98 and a Clumping titer, µg/ml fibrinogen; wild-type, stationary phase (µg/ml fibrinogen) (human fibrinogen (human)) of 0.98.

B1: γ chain of human fibrinogen (ligand)
chain: YVATRDNCCILDERFGSYCPTTCGIADFLSTYQTKVDKDLQSLEDILHQVENKTSEVKQLIKAIQLTYNPDESSKPNMIDAATLKSRKMLEEIMKYEASILTHDSSIRYLQEIYNSNNQKIVNLKEKVAQLEAQCQEPCKDTVQIHDITGKDCQDIANKGAKQSGLYFIKPLKANQQFLVYCEIDGSGNGWTVFQKRLDGSVDFKKNWIQYKEGFGHLSPTGTTEFWLGNEKIHLISTQSAIPYALRVELEDWNGRTSTADYAMFKVGPEADKYRLTYAYFAGGDAGDAFDGFDFGDDPSDKFFTSHNGMQFSTWDNDNDKFEGNCAEQDGSGWWMNKCHAGHLNGVYYQGGTYSKASTPNGYDNGIIWATWKTRWYSMKKTTMKIIPFNRLTIGEGQQHHLGGAKQAGDV
notes: also called gamma-chain of fibrinogen; y chain of fibrinogen
B1: binds [1].

With B2 the “binding at the highest concentration, relative to ClfB region A” value (human fibrinogen) was roughly 50 % greater than ClfB and the binding result (bovine serum albumin) was “no binding”.
